The target of this experiment is C3d, P01024. The experiment in a line: SPR, 0.5 µM FH with anti-FH.07 Fab′ (2 to 1 molar ratio) over immobilised C3d. The settings on record: remark: other sources report otherwise. Background: SPR reads the build-up and loss of mass on a sensor chip optically.
C3d, P01024, sequence (P01024 1002-1303 limits assumed): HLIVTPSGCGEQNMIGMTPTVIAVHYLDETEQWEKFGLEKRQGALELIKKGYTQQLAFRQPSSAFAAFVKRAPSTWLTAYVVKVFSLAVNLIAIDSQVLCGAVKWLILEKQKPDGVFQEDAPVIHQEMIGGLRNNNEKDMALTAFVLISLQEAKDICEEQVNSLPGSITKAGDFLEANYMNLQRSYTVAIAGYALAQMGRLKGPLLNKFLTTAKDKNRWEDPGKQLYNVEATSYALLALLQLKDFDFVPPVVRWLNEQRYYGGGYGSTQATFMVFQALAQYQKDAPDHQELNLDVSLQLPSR

B1: human factor H, P08603 19-1231 (protein, UniProt P08603 19-1231, looked up)
chain: EDCNELPPRRNTEILTGSWSDQTYPEGTQAIYKCRPGYRSLGNVIMVCRKGEWVALNPLRKCQKRPCGHPGDTPFGTFTLTGGNVFEYGVKAVYTCNEGYQLLGEINYRECDTDGWTNDIPICEVVKCLPVTAPENGKIVSSAMEPDREYHFGQAVRFVCNSGYKIEGDEEMHCSDDGFWSKEKPKCVEISCKSPDVINGSPISQKIIYKENERFQYKCNMGYEYSERGDAVCTESGWRPLPSCEEKSCDNPYIPNGDYSPLRIKHRTGDEITYQCRNGFYPATRGNTAKCTSTGWIPAPRCTLKPCDYPDIKHGGLYHENMRRPYFPVAVGKYYSYYCDEHFETPSGSYWDHIHCTQDGWSPAVPCLRKCYFPYLENGYNQNYGRKFVQGKSIDVACHPGYALPKAQTTVTCMENGWSPTPRCIRVKTCSKSSIDIENGFISESQYTYALKEKAKYQCKLGYVTADGETSGSITCGKDGWSAQPTCIKSCDIPVFMNARTKNDFTWFKLNDTLDYECHDGYESNTGSTTGSIVCGYNGWSDLPICYERECELPKIDVHLVPDRKKDQYKVGEVLKFSCKPGFTIVGPNSVQCYHFGLSPDLPICKEQVQSCGPPPELLNGNVKEKTKEEYGHSEVVEYYCNPRFLMKGPNKIQCVDGEWTTLPVCIVEESTCGDIPELEHGWAQLSSPPYYYGDSVEFNCSESFTMIGHRSITCIHGVWTQLPQCVAIDKLKKCKSSNLIILEEHLKNKKEFDHNSNIRYRCRGKEGWIHTVCINGRWDPEVNCSMAQIQLCPPPPQIPNSHNMTTTLNYRDGEKVSVLCQENYLIQEGEEITCKDGRWQSIPLCVEKIPCSQPPQIEHGTINSSRSSQESYAHGTKLSYTCEGGFRISEENETTCYMGKWSSPPQCEGLPCKSPPEISHGVVAHMSDSYQYGEEVTYKCFEGFGIDGPAIAKCLGEKWSHPPSCIKTDCLSLPSFENAIPMGEKKDVYKAGEQVTYTCATYYKMDGASNVTCINSRWTGRPTCRDTSCVNPPTVQNAYIVSRQMSKYPSGERVRYQCRSPYEMFGDEEVMCLNGNWTEPPQCKDSTGKCGPPPPIDNGDITSFPLSVYAPASSVEYQCQNLYQLEGNKRITCRNGQWSEPPKCLHPCVISREIMENYNIALRWTAKQKLYSRTGESVEFVCKRGYRLSSRSHTLRTTCWDGKLEYPTCAKR
Turning to B1, the fold increase of the measured interactions (RU) with anti-FH.07 Fab′ against FH alone is more than 2 fold.
